molecular target: FGFR3 (UniProt P22607); assay: phosphorylation enrichment, bacterial display (enrichment ratio); higher = better substrate or ligand; peptides without Tyr show the background
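Further: 11-residue human phosphosite peptides and single-mutation variants displayed on the E. coli surface, counted by deep sequencing, each peptide's frequency after selection divided by its frequency in the unselected input library; frequency after pTyr selection over input frequency; kinase dosed for 20-30% of maximal phosphorylation in three min.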

Sequence of FGFR3 (P22607 whole entry, looked up): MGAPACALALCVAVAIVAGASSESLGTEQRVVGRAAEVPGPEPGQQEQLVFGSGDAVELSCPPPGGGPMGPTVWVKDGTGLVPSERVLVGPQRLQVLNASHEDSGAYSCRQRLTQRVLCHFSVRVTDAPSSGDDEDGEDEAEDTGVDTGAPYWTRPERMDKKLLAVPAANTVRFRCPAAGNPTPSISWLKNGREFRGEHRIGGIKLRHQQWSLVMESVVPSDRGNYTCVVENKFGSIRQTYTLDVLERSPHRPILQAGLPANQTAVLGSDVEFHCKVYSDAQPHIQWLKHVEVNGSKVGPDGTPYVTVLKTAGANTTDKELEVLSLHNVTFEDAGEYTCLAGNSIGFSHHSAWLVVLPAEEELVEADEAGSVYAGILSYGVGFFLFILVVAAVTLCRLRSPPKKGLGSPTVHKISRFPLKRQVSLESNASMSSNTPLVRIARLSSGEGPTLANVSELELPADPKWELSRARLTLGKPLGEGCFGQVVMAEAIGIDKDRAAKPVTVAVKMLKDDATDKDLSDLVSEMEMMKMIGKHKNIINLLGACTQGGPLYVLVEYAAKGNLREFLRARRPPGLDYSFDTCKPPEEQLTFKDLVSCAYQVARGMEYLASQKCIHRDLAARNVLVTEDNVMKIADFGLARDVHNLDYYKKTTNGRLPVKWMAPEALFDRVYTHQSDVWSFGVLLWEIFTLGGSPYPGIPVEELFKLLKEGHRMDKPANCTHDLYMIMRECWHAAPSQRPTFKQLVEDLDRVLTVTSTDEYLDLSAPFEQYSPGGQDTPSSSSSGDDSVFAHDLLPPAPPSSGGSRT

Point of comparison: NHQFDYTFDWT [CSNK1A1_Y294_YF], phosphorylation enrichment 2.22. Against it:
- DQNVEYKGTVS [FHL1_Y117_W122S] — lower, 0.566
- PADCRYFAFPQ [GAMT_Y222_YF] — lower, 1.78
- HNLPIYEGYAL [ACTA1_Y168_V165L] — lower, 0.64
- EMFNPCFGLFE [NEDD4L_Y679_Y679C_YF] — lower, 0.798
- MSRNLYSGDYY [DDR2_Y736] — higher, 5.43
- PNAFIYVVQLP [L1CAM_Y420_A415P_YF] — lower, 1.31
- KLKEKYEKDIA [HMGB1_Y155] — lower, 0.452
- IFRASYFRKGG [ALK_Y1282_YF] — lower, 0.625
- LADKPYTFEYY [FXN_Y118_D122Y] — lower, 0.969
- KHMADYPDCKY [SOX11_Y113_Y116C] — lower, 1.31
- RHLLRYLSWTV [CLCNKB_Y93_S88R] — lower, 0.521
- GKTFTYRSVFF [ZNF80_Y200] — lower, 0.562
- AVRVFYRKCPR [EPHB2_Y194] — lower, 0.645
- QTEAPYRFIYM [PTPN11_Y511_Q510P] — higher, 5.25
- FSCLPYGRLAY [SLC52A2_Y305] — lower, 0.641
- RDWSLYFKIIE [KRT18_Y129_H128L] — lower, 0.841
- WNDLDYMDSRR [GAA_Y407] — lower, 0.674
- LFEDHYLLGTS [ASS1_Y87_R86H_YF] — lower, 0.707
- TGFRPYVCPFD [YY1_Y383_D380Y_YF] — lower, 1.66
- EKHGQYLIGHG [EPHB4_Y581_D576E] — lower, 0.5
- DRLASSLDKVR [KRT10_Y160_Y160S] — lower, 0.415
- KEKLCYVAPDF [ACTA1_Y220_L223P] — lower, 0.603
- VTQEPYELYCE [CBL_Y368_Q367P] — lower, 0.794
- NLRQQYNSPQE [UMPS_Y432_G429R] — lower, 0.43
- RSAGKYDVFLI [MECP2_Y120_YF] — lower, 0.748
- TFFQMYDKGLV [IARS2_Y231_YF] — lower, 0.623
- AFLQTYAHEVS [PCDHGA5_Y753_S754A] — lower, 0.617
- AEDKPYAELWM [MPI_Y46] — lower, 1.34

system: Fer (mouse); assay: as above

Point of comparison: AEDKPYAELWM [MPI_Y46], phosphorylation enrichment 10.8. Against it:
- DQNVEYKGTVS [FHL1_Y117_W122S] — lower, 0.468
- NHQFDYTFDWT [CSNK1A1_Y294_YF] — lower, 0.459
- PADCRYFAFPQ [GAMT_Y222_YF] — lower, 0.636
- HNLPIYEGYAL [ACTA1_Y168_V165L] — higher, 19.3
- EMFNPCFGLFE [NEDD4L_Y679_Y679C_YF] — lower, 0.811
- MSRNLYSGDYY [DDR2_Y736] — lower, 2.13
- PNAFIYVVQLP [L1CAM_Y420_A415P_YF] — lower, 0.737
- KLKEKYEKDIA [HMGB1_Y155] — lower, 0.55
- IFRASYFRKGG [ALK_Y1282_YF] — lower, 0.581
- LADKPYTFEYY [FXN_Y118_D122Y] — lower, 0.833
- KHMADYPDCKY [SOX11_Y113_Y116C] — lower, 0.504
- RHLLRYLSWTV [CLCNKB_Y93_S88R] — lower, 0.594
- GKTFTYRSVFF [ZNF80_Y200] — lower, 0.457
- AVRVFYRKCPR [EPHB2_Y194] — lower, 0.518
- QTEAPYRFIYM [PTPN11_Y511_Q510P] — higher, 11
- FSCLPYGRLAY [SLC52A2_Y305] — lower, 0.619
- RDWSLYFKIIE [KRT18_Y129_H128L] — lower, 0.464
- WNDLDYMDSRR [GAA_Y407] — lower, 0.427
- LFEDHYLLGTS [ASS1_Y87_R86H_YF] — lower, 0.569
- TGFRPYVCPFD [YY1_Y383_D380Y_YF] — lower, 0.892
- EKHGQYLIGHG [EPHB4_Y581_D576E] — lower, 0.381
- DRLASSLDKVR [KRT10_Y160_Y160S] — lower, 0.412
- KEKLCYVAPDF [ACTA1_Y220_L223P] — lower, 0.419
- VTQEPYELYCE [CBL_Y368_Q367P] — lower, 0.86
- NLRQQYNSPQE [UMPS_Y432_G429R] — lower, 0.345
- RSAGKYDVFLI [MECP2_Y120_YF] — lower, 0.618
- TFFQMYDKGLV [IARS2_Y231_YF] — lower, 0.57
- AFLQTYAHEVS [PCDHGA5_Y753_S754A] — lower, 0.521

molecular target: Fes (UniProt P07332); assay: as above
Sequence (P07332 whole entry, looked up): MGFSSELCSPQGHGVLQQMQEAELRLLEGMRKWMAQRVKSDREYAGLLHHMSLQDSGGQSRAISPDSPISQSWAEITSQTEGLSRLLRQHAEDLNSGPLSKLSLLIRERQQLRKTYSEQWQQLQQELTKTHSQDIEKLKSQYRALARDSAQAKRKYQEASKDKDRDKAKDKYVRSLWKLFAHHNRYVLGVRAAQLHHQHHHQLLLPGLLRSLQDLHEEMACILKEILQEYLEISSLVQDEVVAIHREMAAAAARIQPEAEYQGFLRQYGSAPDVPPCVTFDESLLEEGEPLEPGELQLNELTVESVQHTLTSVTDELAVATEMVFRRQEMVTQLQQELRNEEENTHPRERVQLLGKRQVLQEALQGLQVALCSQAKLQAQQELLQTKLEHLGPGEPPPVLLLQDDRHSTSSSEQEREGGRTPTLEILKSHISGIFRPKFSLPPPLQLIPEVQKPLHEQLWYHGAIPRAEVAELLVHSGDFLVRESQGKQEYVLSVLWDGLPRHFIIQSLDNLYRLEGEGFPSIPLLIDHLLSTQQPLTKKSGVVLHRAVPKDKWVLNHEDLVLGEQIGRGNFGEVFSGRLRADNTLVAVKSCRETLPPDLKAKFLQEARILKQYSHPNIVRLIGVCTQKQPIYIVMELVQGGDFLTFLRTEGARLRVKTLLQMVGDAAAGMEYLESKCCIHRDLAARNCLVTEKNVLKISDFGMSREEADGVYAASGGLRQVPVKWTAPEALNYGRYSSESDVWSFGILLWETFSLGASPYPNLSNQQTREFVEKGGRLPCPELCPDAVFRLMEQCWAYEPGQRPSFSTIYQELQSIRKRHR

Point of comparison: KHMADYPDCKY [SOX11_Y113_Y116C], phosphorylation enrichment 1.01. Against it:
- DQNVEYKGTVS [FHL1_Y117_W122S] — lower, 0.828
- NHQFDYTFDWT [CSNK1A1_Y294_YF] — higher, 1.12
- PADCRYFAFPQ [GAMT_Y222_YF] — lower, 0.99
- HNLPIYEGYAL [ACTA1_Y168_V165L] — higher, 1.16
- EMFNPCFGLFE [NEDD4L_Y679_Y679C_YF] — higher, 1.45
- MSRNLYSGDYY [DDR2_Y736] — lower, 0.788
- PNAFIYVVQLP [L1CAM_Y420_A415P_YF] — higher, 1.56
- KLKEKYEKDIA [HMGB1_Y155] — lower, 0.82
- IFRASYFRKGG [ALK_Y1282_YF] — lower, 0.899
- LADKPYTFEYY [FXN_Y118_D122Y] — higher, 1.08
- RHLLRYLSWTV [CLCNKB_Y93_S88R] — higher, 1.29
- GKTFTYRSVFF [ZNF80_Y200] — lower, 0.951
- AVRVFYRKCPR [EPHB2_Y194] — lower, 0.655
- QTEAPYRFIYM [PTPN11_Y511_Q510P] — higher, 1.6
- FSCLPYGRLAY [SLC52A2_Y305] — lower, 0.98
- RDWSLYFKIIE [KRT18_Y129_H128L] — higher, 1.56
- WNDLDYMDSRR [GAA_Y407] — higher, 1.26
- LFEDHYLLGTS [ASS1_Y87_R86H_YF] — higher, 1.15
- TGFRPYVCPFD [YY1_Y383_D380Y_YF] — lower, 0.975
- EKHGQYLIGHG [EPHB4_Y581_D576E] — lower, 0.719
- DRLASSLDKVR [KRT10_Y160_Y160S] — lower, 0.663
- KEKLCYVAPDF [ACTA1_Y220_L223P] — lower, 0.836
- VTQEPYELYCE [CBL_Y368_Q367P] — higher, 1.13
- NLRQQYNSPQE [UMPS_Y432_G429R] — lower, 0.587
- RSAGKYDVFLI [MECP2_Y120_YF] — lower, 0.758
- TFFQMYDKGLV [IARS2_Y231_YF] — higher, 1.14
- AFLQTYAHEVS [PCDHGA5_Y753_S754A] — lower, 0.985
- AEDKPYAELWM [MPI_Y46] — higher, 1.34

molecular target: Fyn (UniProt P06241); assay: as above
Sequence (P06241 whole entry, looked up): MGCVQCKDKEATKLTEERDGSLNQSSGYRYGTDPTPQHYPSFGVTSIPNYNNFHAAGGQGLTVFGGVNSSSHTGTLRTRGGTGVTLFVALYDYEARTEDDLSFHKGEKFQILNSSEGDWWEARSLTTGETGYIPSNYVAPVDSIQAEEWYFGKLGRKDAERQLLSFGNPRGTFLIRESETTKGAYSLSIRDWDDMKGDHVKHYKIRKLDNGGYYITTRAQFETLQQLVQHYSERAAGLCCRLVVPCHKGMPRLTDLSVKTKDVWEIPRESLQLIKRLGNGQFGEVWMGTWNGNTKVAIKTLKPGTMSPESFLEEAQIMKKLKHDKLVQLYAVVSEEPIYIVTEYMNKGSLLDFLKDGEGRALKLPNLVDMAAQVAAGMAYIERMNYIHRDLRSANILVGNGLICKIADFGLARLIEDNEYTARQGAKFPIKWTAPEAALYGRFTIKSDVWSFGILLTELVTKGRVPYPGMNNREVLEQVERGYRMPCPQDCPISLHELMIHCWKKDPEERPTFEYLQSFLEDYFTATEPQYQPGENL

Point of comparison: WNDLDYMDSRR [GAA_Y407], phosphorylation enrichment 0.451. Against it:
- DQNVEYKGTVS [FHL1_Y117_W122S] — lower, 0.422
- NHQFDYTFDWT [CSNK1A1_Y294_YF] — higher, 0.584
- PADCRYFAFPQ [GAMT_Y222_YF] — higher, 0.817
- HNLPIYEGYAL [ACTA1_Y168_V165L] — higher, 11.6
- EMFNPCFGLFE [NEDD4L_Y679_Y679C_YF] — higher, 0.543
- MSRNLYSGDYY [DDR2_Y736] — higher, 5.12
- PNAFIYVVQLP [L1CAM_Y420_A415P_YF] — higher, 0.896
- KLKEKYEKDIA [HMGB1_Y155] — higher, 0.537
- IFRASYFRKGG [ALK_Y1282_YF] — higher, 0.619
- LADKPYTFEYY [FXN_Y118_D122Y] — higher, 1.77
- KHMADYPDCKY [SOX11_Y113_Y116C] — lower, 0.251
- RHLLRYLSWTV [CLCNKB_Y93_S88R] — higher, 0.507
- GKTFTYRSVFF [ZNF80_Y200] — lower, 0.43
- AVRVFYRKCPR [EPHB2_Y194] — higher, 0.464
- QTEAPYRFIYM [PTPN11_Y511_Q510P] — higher, 0.697
- FSCLPYGRLAY [SLC52A2_Y305] — higher, 0.618
- RDWSLYFKIIE [KRT18_Y129_H128L] — lower, 0.447
- LFEDHYLLGTS [ASS1_Y87_R86H_YF] — higher, 0.783
- TGFRPYVCPFD [YY1_Y383_D380Y_YF] — lower, 0.4
- EKHGQYLIGHG [EPHB4_Y581_D576E] — lower, 0.42
- DRLASSLDKVR [KRT10_Y160_Y160S] — lower, 0.423
- KEKLCYVAPDF [ACTA1_Y220_L223P] — lower, 0.424
- VTQEPYELYCE [CBL_Y368_Q367P] — higher, 0.761
- NLRQQYNSPQE [UMPS_Y432_G429R] — lower, 0.437
- RSAGKYDVFLI [MECP2_Y120_YF] — higher, 0.556
- TFFQMYDKGLV [IARS2_Y231_YF] — higher, 0.566
- AFLQTYAHEVS [PCDHGA5_Y753_S754A] — higher, 0.49
- AEDKPYAELWM [MPI_Y46] — higher, 2.27
